Source: US11834499 (University of California, dated 2023)
Changes are numbered by the printed parent chain. One block for each binder: values may come before it.

Legend:
[1] = molecular target: T1, mouse CLDN18.2 (mouse, UniProt P56857 10-264, Expressed on HEK293T cells as a fusion to GFP. The GFP is left out of the letters.); test: FACS dose curve, AF647-labelled IgG on HEK293T mouse CLDN18.2 MP cells
T1 construct: also called mouse CLDN18.2 fused to GFP; not shown: The GFP fused to mouse CLDN18.2, and any linker to it
T1 chain: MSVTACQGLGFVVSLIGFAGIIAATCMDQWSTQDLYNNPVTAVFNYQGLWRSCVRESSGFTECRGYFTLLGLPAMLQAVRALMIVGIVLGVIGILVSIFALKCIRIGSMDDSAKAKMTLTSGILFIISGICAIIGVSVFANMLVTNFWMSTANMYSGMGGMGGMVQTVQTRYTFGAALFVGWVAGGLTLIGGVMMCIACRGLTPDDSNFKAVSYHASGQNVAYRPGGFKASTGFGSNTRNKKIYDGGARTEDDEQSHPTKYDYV

[2] = molecular target: T2, human Claudin-18.2 (CLDN18.2) (human); test: FACS, 1.5 ug antibody, HEK293T-CLDN18.2 C12 clone cells
T2 construct: On cells: fused to GFP in engineered HEK293T cells (clone C12), endogenous in HUPT4 and SNU601 cells; also called human CLDN18.2

[3] = molecular target: T2, human Claudin-18.2 (CLDN18.2); test: FACS, 1.5 ug antibody, HUPT4 cells (endogenous CLDN18.2)
Method: FACS assays were carried out to determine relative antigen binding strengths of the humanized antibodies (at either 1.5 μg or 0.3 μg) for binding to CLDN18.2 as expressed by the indicated cancer cell lines.

[4] = molecular target: T2, human Claudin-18.2 (CLDN18.2); test: KinExA, cell-based; HUPT4, Versene; Error% 3.57; 95% CI 0.31nM - 1.34nM; equilibrium curves 1nM, 20nM
Method: (§1) For each KD measurement, in general, at least two antibody concentration curves were prepared using the same batch of cells (same passage) to avoid changes in expression level from passage to passage. Briefly, either HEK293T CLDN18.2-mGFP C12 cells (engineered overexpression cell line) or HUPT4 cells (native positive cell line) were detached using Versene. Cells were then equilibrated in different concentrations of the antibody solutions, respectively, in 2% FBS/DMEM or 2% FBS/RPMI at 4° C. overnight. Cells concentrations started with 1.8 ×10^7 cells/ml and 2-fold serial dilution was performed to 10 points. In addition, antibody solution only (Signal 100%) and nonspecific binding (NSB) buffer only were included in each curve. Next day, spin the cells at 1500 rpm for 10 mins and saved the supernatant for measurement. […] The KD and antigen expression level were calculated using two antibody curves analyzed by n-curve analysis.

[5] = molecular target: T2, human Claudin-18.2 (CLDN18.2); test: KinExA, cell-based; HEK293T-CLDN18.2-mGFP C12, Versene; Error% 2.35; 95% CI 2.12nM - 6.47nM; equilibrium curves 500pM, 2nM, 10nM
Method: as §1

[6] = molecular target: T2, human Claudin-18.2 (CLDN18.2); test: KinExA, cell-based; HUPT4, Versene; Error% 3.73; 95% CI 0.87nM - 3.23nM; equilibrium curves 1nM, 20nM
Method: as §1

[7] = molecular target: T2, human Claudin-18.2 (CLDN18.2); test: KinExA, cell-based; HEK293T-CLDN18.2-mGFP C12, Versene; Error% 1.84; 95% CI 2.03nM - 4.44nM; equilibrium curves 500pM, 2nM, 10nM
Method: as §1

[8] = molecular target: T2, human Claudin-18.2 (CLDN18.2); test: flow cytometry; HUPT4 over M202 [Cont.]
Method: (§2) The samples were then measured by Intellicyt® iQue Advanced Flow Cytometry Platform.

[9] = molecular target: T2, human Claudin-18.2 (CLDN18.2); test: flow cytometry; HEK293T CLDN18.2 over HEK293T parental [Cont.]
Method: as §2

B4: Reference antibody 2 (Benchmark 2-163E12) (antibody, V domains shown)
VH: QVQLQQSGAELARPGASVKLSCKASGYTFTDYYINWVKQRTGQGLEWIGEIYPGSGNTYYNEKFKGKATLTADKSSSTAYMQLSSLTSEDSAVYFCARSYGAFDYWGQGTTLTVSS
VL: DIVMTQSPSSLTVTAGEKVTMSCKSSQSLLNSGNQKNYLTWYQQKPGQPPKLLIYWASTRESGVPDRFTGSGSGTDFTLTISSVQAEDLAVYYCQNDYSYPLTFGAGTKLELK
- binding result [1]: no binding (tested: 0.32 nM to 1000 nM)

B7: HuAb307-3 (antibody, V domains shown)
VH: EVQLLESGGGLVQPGGSLRLSCAASGFTFSSYTMSWVRQAPGKGLEWVATIIIGGSYTYYADSVKGRFTISRDNSKNTLYLQMNSLRAEDTAVYYCTRLVKGNAMDYWGQGTLVTVSS
VL: DIVMTQSPDSLAVSLGERVTMNCKSSQSLLNSGNQKNYLSWYQQKPGQPPKLLFYWASTRESGVPDRFSGSGSGTDFTLTISSVQAEDVAVYYCQNDYSYPFTFGQGTKLEIK
notes: Humanized, expressed as full-length IgG
- FACS signal (relative antigen binding strength) [2]: 151000
- FACS signal (relative antigen binding strength) [3]: 34000
- Kd [4]: 0.69 nM
- Kd [5]: 3.65 nM

B10: 02-0307-9h antibody (antibody, V domains shown)
VH: B7 VH with N103Q
VL: B7 VL with N31S
notes: also called 02-h1F06-9h
- ratio native [8]: 45.1
- ratio OE [9]: 273

B12: HuAb360-6 (antibody, V domains shown)
VH: QVQLVQSGAEVKKPGASVKMSCKASGYTFTSYLMHWVRQAPGQGLEWIGYINPYNDGTNYAQKFQGRATLTSDKSTSTAYMELSSLRSEDTAVYYCTRGDYWGQGTLVTVSS
VL: B7 VL with S40T, F54I, T59I, E61Q, Q95L, S99G, Y100F, F102L
- FACS signal (relative antigen binding strength) [2]: 159000
- FACS signal (relative antigen binding strength) [3]: 34600

B14: 02-0358-9h antibody (antibody, V domains shown)
VH: EVQLVESGGGLVQPGGSLRLSCAVSGFTFSSFGMHWVRQAPGKGLEWVAYISSGTTNIYYADSVKGRFTVSRDNAKNSLYLQMNSLRAEDTAVYYCVRSGYYGQSLDYWGQGTLVTVSS
VL: B7 VL with L30F, N31S, K36R, S40T, F54I, D97V, S99I, F102L
- ratio native [8]: 93.4
- ratio OE [9]: 453

B15: 02-0358-8h antibody (antibody, V domains shown)
VH: B14 VH
VL: B7 VL with L30F, N31Q, K36R, S40T, F54I, D97V, S99I, F102L
- ratio native [8]: 57.9
- ratio OE [9]: 229

B16: 02-0307-7h antibody (antibody, V domains shown)
VH: B7 VH with N103Q
VL: B7 VL
notes: also called 02-h1F06-7h
- ratio native [8]: 22.5
- ratio OE [9]: 326

B17: 02-0307-8h antibody (antibody, V domains shown)
VH: B7 VH with N103Q
VL: B7 VL with N31Q
notes: also called 02-h1F06-8h
- ratio native [8]: 12.2
- ratio OE [9]: 166

B19: 02-0358-6h antibody (antibody, V domains shown)
VH: B14 VH
VL: B7 VL with L30F, K36R, S40T, F54I, D97V, S99I, F102L
- ratio native [8]: 79.9
- ratio OE [9]: 435

B20: 02-0358-4h antibody (antibody, V domains shown)
VH: B14 VH with Q104N
VL: B7 VL with L30F, N31Q, K36R, S40T, F54I, D97V, S99I, F102L
- ratio native [8]: 94
- ratio OE [9]: 575

B21: 02-0358-7h antibody (antibody, V domains shown)
VH: B14 VH with Q104S
VL: B7 VL with L30F, K36R, S40T, F54I, D97V, S99I, F102L
- ratio native [8]: 94.1
- ratio OE [9]: 449

B22: 02-0307-10h antibody (antibody, V domains shown)
VH: B7 VH with N103S
VL: B7 VL
notes: also called 02-h1F06-10h
- ratio native [8]: 6.42
- ratio OE [9]: 202

Other lines, results leading:

- binding result [1]: no binding (tested: 0.32 nM to 1000 nM)
B1: Ab 376 (antibody, V domains shown)
VH: DVKLVESGGGLVKPGGSLKLSCAASGFTFSSYTMSWVRQTPEKRLYWVATISSGVSYTYYPDSVKGRFTISRDNAKNTLYLQMSSLKSEDTAMYYCTRLTKGNAMDYWGQGTSVTVSS
VL: B4 VL with D76G, L102F

- FACS signal (relative antigen binding strength) [2]: 117000
- FACS signal (relative antigen binding strength) [3]: 26200
B2: Ab 360 (antibody, V domains shown)
VH: VVQLQQSGPELVKPGASVKMSCKASGYTFTSYLMHWVRQKPGLGLDWIGYINPYNDGTNYNAKFIDKATLTSDKTSSTAYMELSSLTSEDSAIYYCTRGDYWGQGTSVTVSS
VL: B4 VL with T12A, K18Q, T59I, E61Q, Q95L, S99G, Y100F
notes: also called 360-Chim

- binding result [1]: no binding (tested: 0.32 nM to 1000 nM)
B3: Ab 392 (antibody, V domains shown)
VH: EVQLQQSGPELVKPGASVKMSCKASGFTFTSYVMHWVKQKSGQGLEWIGYINPYNDDIKYNAKFEDKATLTSDRSSSTAYMELSSLTSDDSAVYFCTRGDYWGQGTTLTVSS
VL: B4 VL with A15T, S22D, P46S, T59I, E61K, Q95L, Y100F

- binding result [1]: no binding (tested: 0.32 nM to 1000 nM)
B5: Ab 384 (antibody, V domains shown)
VH: QVQLQQSGAELARPGASVKLSCKASDYTFTSYVISWVKQRTGQGLEWIGEIYPRNGNTYYNEKFKGKATLTADKSSSTAYMELRSLTSEDSAVYFCARSYYGNSFAYWGQGTLVTVSA
VL: B4 VL with K45R, Y93C, D97N, S99Y, L102F, A106G, E111G, L112I

- binding result [1]: no binding (tested: 0.32 nM to 1000 nM)
B6: Ab 400 (antibody, V domains shown)
VH: QVQLKESGPGLVAPSQSLSITCTVSGFSLNSYGVSWVRQPPGKGLEWLGVIWGDGSTNYHSALKSRLNINKDKSKSQVFLKLNSLQTDDTATYYCARPTRGNAMDYWGQGTSVTVSS
VL: DVVMTQSPSSLTVTAGEKVTMNCKSSQSLLNSGNQRSYLTWYQQKPGQPPKLLIYWASTRESGAPDRFTGSGSGADFTLTISSVQAEDLAIYYCQNNYNYPFTFGSGTKLEIK

- Kd [6]: 1.7 nM
- Kd [7]: 3 nM
B8: 02-0358-h3 (antibody, V domains shown)
VH: B14 VH with Q104N
VL: B7 VL with L30F, K36R, S40T, F54I, D97V, S99I, F102L
notes: Humanized IgG

- ratio native [8]: 54.1
- ratio OE [9]: 274
B9: 02-0358-10h antibody (antibody, V domains shown)
VH: B14 VH with Q104S
VL: B7 VL with L30F, N31Q, K36R, S40T, F54I, D97V, S99I, F102L

- ratio native [8]: 88.8
- ratio OE [9]: 456
B11: 02-0358-11h antibody (antibody, V domains shown)
VH: B14 VH with Q104S
VL: B7 VL with L30F, N31S, K36R, S40T, F54I, D97V, S99I, F102L

- ratio native [8]: 121
- ratio OE [9]: 408
B13: 02-0307-5h antibody (antibody, V domains shown)
VH: B7 VH
VL: B7 VL with N31Q
notes: also called 02-h1F06-5h

- ratio native [8]: 1.52
- ratio OE [9]: 40
B18: 02-0307-11h antibody (antibody, V domains shown)
VH: B7 VH with N103S
VL: B7 VL with N31Q
notes: also called 02-h1F06-11h

- ratio native [8]: 9.89
- ratio OE [9]: 183
B23: 02-0307-12h antibody (antibody, V domains shown)
VH: B7 VH with N103S
VL: B7 VL with N31S
notes: also called 02-h1F06-12h
